From publication PMC11592359
Values belong to the substance of their own block, whether it stands above or below them.

Legend:
[1] = biological target: LZ-mDio3^cat: leucine zipper of A. thaliana Hy5 (residues 112-150) fused N-terminally to mouse Dio3 78-304 Sec170Cys (A. thaliana | Mus musculus); test: native gel or EMSA; Blue Native PAGE, 5% stacking and 12.5% resolving gel, 4 °C; samples from the monomer and the dimer SEC peaks; catalase, BSA and chicken egg albumin as size markers
[2] = biological target: LZ-mDio3^cat: leucine zipper of A. thaliana Hy5 (residues 112-150) fused N-terminally to mouse Dio3 78-304 Sec170Cys (A. thaliana | Mus musculus); test: SEC; size exclusion chromatography of the purified recombinant protein (final purification step); 20 mM Tris/HCl pH 7.5/7.8, 200 mM NaCl, 1 mM TCEP; compared with molecular weight standards
[3] = biological target: mouse iodothyronine deiodinase 2, residues 49-262 (Mus musculus) (UniProt Q9Z1Y9); test: not stated; size analysis of the recombinantly produced construct (Supplementary Figure S3C)
[4] = biological target: mouse iodothyronine deiodinase 2 catalytic domain, residues 71-262 (Sec130Cys) (Mus musculus) (UniProt Q9Z1Y9); test: native gel or EMSA; Blue Native PAGE, 5% stacking and 12.5% resolving gel, 4 °C; samples from the monomer and the dimer SEC peaks; catalase, BSA and chicken egg albumin as size markers
[5] = biological target: mouse iodothyronine deiodinase 2 catalytic domain, residues 71-262 (Sec130Cys) (Mus musculus) (UniProt Q9Z1Y9); test: SEC; size exclusion chromatography of the purified recombinant protein (final purification step); 20 mM Tris/HCl pH 7.5/7.8, 200 mM NaCl, 1 mM TCEP; compared with molecular weight standards
[6] = biological target: mouse iodothyronine deiodinase 2 catalytic domain, residues 71-262 (Sec130Cys) (Mus musculus) (UniProt Q9Z1Y9); test: SEC-MALS; SEC with multi angle light scattering of the two species of Dio2-71-262 (Supplementary Figure S3A)

stoichiometry N [1]: 2
stoichiometry N [2]: 2
Substance: LZ-mDio3^cat: leucine zipper of A. thaliana Hy5 (residues 112-150) fused N-terminally to mouse Dio3 78-304 Sec170Cys (from UniProt O24646 112-150; Q91ZI8 78-304)

stoichiometry N [3]: 2
Substance: mouse iodothyronine deiodinase 2, residues 49-262 (from UniProt Q9Z1Y9 49-262) (domain or fragment)

stoichiometry N [4]: 2
stoichiometry N [5]: 2
stoichiometry N [6]: 2
Substance: mouse iodothyronine deiodinase 2 catalytic domain, residues 71-262 (Sec130Cys) (from UniProt Q9Z1Y9 71-262) (domain or fragment)
